# Values joined by “and” are separate entries in the source; they are usually repeats but may differ in a detail not shown here. Identical values can stand only once.
# T1: EGFP-Atg11 (full-length yeast Atg11) (yeast (S. cerevisiae), UniProt Q12527 1-1178)
# T1 construct: Atg11, S. cerevisiae, full length, 135 kDa; also called EGFP tagged Atg11; not shown: EGFP, N-terminal, kept
# T1 sequence (looked up): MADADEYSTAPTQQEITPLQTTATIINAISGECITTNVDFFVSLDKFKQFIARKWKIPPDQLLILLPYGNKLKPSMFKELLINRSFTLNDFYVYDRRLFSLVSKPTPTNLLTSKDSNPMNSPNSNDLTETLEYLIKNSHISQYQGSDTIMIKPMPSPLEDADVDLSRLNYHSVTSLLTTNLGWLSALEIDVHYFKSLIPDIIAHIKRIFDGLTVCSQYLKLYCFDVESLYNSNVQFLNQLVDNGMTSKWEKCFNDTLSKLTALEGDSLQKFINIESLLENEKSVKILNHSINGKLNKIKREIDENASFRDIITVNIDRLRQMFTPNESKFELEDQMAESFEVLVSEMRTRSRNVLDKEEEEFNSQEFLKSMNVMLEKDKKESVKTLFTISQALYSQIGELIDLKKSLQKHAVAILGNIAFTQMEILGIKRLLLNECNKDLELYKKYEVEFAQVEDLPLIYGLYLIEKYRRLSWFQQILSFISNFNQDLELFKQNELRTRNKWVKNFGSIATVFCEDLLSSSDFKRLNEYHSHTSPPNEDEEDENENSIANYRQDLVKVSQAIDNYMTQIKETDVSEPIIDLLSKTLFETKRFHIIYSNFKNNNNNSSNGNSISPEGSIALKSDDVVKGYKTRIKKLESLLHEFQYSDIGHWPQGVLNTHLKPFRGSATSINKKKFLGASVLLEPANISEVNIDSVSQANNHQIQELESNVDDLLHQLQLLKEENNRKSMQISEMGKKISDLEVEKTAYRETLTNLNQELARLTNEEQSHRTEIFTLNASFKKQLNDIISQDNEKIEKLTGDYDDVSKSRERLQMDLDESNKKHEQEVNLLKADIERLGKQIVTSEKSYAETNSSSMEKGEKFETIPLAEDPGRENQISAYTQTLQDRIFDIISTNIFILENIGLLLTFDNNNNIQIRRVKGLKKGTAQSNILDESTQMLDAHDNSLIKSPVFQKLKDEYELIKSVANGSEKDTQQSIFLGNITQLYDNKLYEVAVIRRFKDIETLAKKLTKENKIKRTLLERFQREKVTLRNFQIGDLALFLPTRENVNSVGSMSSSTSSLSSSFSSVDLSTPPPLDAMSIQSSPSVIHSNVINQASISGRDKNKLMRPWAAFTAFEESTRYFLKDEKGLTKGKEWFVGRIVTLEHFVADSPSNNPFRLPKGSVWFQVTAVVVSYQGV
# Key:
# [1] = target: T1, EGFP-Atg11 (full-length yeast Atg11); assay: NMR titration; 1H-15N HSQC of 0.2 mM labelled Atg9-NTD, unlabelled EGFP-Atg11 added stepwise (0.02, 0.04, 0.08 mM); 20 mM Bis-Tris pH 6, 300 mM NaCl; 298 K, 600 MHz; read-out: loss of peak intensity; settings: both partners purified
# [2] = target: T1, EGFP-Atg11 (full-length yeast Atg11); assay: ITC; Atg9-NTD (300 to 500 μM, syringe) into EGFP-Atg11 (50 to 100 μM, cell); 25 °C; 20 mM Tris pH 7.4, 300 mM NaCl; single binding site; two replicates; settings: both partners purified
binding result [1],Kd [2],dH [2],stoichiometry N [2],Binder
binds,–,–,–,"Atg9-NTD(1–285) (domain or fragment, S. cerevisiae, UniProt Q12142 1-285, looked up, Atg9, S. cerevisiae, N-terminal disordered domain, residues 1-285; The EGFP tag was cleaved with 3C protease for the sample of the resonance assignment; also called Atg9 NTD (residues 1–285); fragment 1 to 285) MERDEYQLPNSHGKNTFLSRIFGLQSDEVNPSLNSQEMSNFPLPDIERGSSLLHSTNDSREDVDENDLRVPESDQGTSTEEEDEVDEEQVQAYAPQISDGLDGDHQLNSVTSKENVLETEKSNLERLVEGSTDDSVPKVGQLSSEEEEDNEFINNDGFDDDTPLFQKSKIHEFSSKKSNTIEDGKRPLFFRHILQNNRPQRDTQKLFTSSNAIHHDKDKSANNGPRNINGNQKHGTKYFGSATQPRFTGSPLNNTNRFTKLFPLRKPNLLSNISVLNNTPEDRIN"
–,1090 nM,-24.6 ± 5.6 kJ/mol,0.931 and 0.94,"Atg9-NTD-(1–255)-mCherry, wild type (domain or fragment, S. cerevisiae, UniProt Q12142 1-255, looked up, mCherry is named for the bead assay; also called mCherry-tagged Atg9-NTD; not shown: mCherry, C-terminal, kept) MERDEYQLPNSHGKNTFLSRIFGLQSDEVNPSLNSQEMSNFPLPDIERGSSLLHSTNDSREDVDENDLRVPESDQGTSTEEEDEVDEEQVQAYAPQISDGLDGDHQLNSVTSKENVLETEKSNLERLVEGSTDDSVPKVGQLSSEEEEDNEFINNDGFDDDTPLFQKSKIHEFSSKKSNTIEDGKRPLFFRHILQNNRPQRDTQKLFTSSNAIHHDKDKSANNGPRNINGNQKHGTKYFGSATQPRFTGSPLNNT"
binds,–,–,–,"Atg9-NTD (29–255)-mCherry (domain or fragment, S. cerevisiae, UniProt Q12142 29-255, looked up, also called shorter construct of Atg9-NTD; not shown: mCherry, C-terminal, kept) VNPSLNSQEMSNFPLPDIERGSSLLHSTNDSREDVDENDLRVPESDQGTSTEEEDEVDEEQVQAYAPQISDGLDGDHQLNSVTSKENVLETEKSNLERLVEGSTDDSVPKVGQLSSEEEEDNEFINNDGFDDDTPLFQKSKIHEFSSKKSNTIEDGKRPLFFRHILQNNRPQRDTQKLFTSSNAIHHDKDKSANNGPRNINGNQKHGTKYFGSATQPRFTGSPLNNT"

# — PMC8814668, “Mechanism of Atg9 recruitment by Atg11 in the cytoplasm-to-vacuole targeting pathway” (The Journal of Biological Chemistry, 2022)
